Experimental data: patent US10562935B2, “Stapled peptides and uses thereof” (London Health Sciences Centre Research Inc., priority 2015, dated 2020)
Bridges are numbered along the chain shown (N, C = ends).

What was measured:
[1] = Circular dichroism (CD) spectroscopy of linear and stapled peptides in water or 40% TFE/water (Example 3); type: physicochemical; conditions: for [0]208 mean residue ellipticity: λ = 208 nm; for [0]222 mean residue ellipticity: λ = 222 nm
In short: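 Spectra 180–260 nm at 20 °C, 0.5 mM N-acetylated, C-amidated peptides in 0.1M phosphate buffer (water) or 40% TFE/water, 1 mm path, five scans averaged, buffer baseline subtracted. Mean residue ellipticity reported at 222 and 208 nm with the 222/208 ratio as helicity index.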

NF-κB = assay: Inflammation assay: NF-κB inducible SEAP reporter in RAW-Blue macrophages stimulated with PAM3CSK4; type: cell-based, murine; conditions: % inhibition relative to positive control
In short: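 RAW-Blue murine RAW 264.7 macrophages carrying an NF-κB-inducible SEAP reporter were stimulated with 200 ng/mL PAM3CSK4 and given peptide at 10 ng/mL. After 18 h, supernatant SEAP was developed with QUANTI-BLUE for 20 min at 37 °C and read by absorbance at 630 nm. Values are mean and SDM of n=3.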

[2] = [θ]222/[θ]208 ratio in water, summary tables 15, 17, 19
[3] = as repeated in tables 16, 18, 20

| Substance | [θ]222/[θ]208 ratio of ellipticities [1, 2] | [θ]222/[θ]208 ratio of ellipticities [1, 3] | [0]222/[0]208 ratio of ellipticities ([1]; in 40% TFE/water) | [0]222/[0]208 ratio of ellipticities ([1]; in water) | alpha-helical character by CD (in words) ([1]; in water) | [0]208 mean residue ellipticity ([1]; in 40% TFE/water) [deg cm^2 dmol^−1] | [0]208 mean residue ellipticity ([1]; in water) | [0]222 mean residue ellipticity ([1]; in 40% TFE/water) [deg cm^2 dmol^−1] | [0]222 mean residue ellipticity ([1]; in water) [deg cm^2 dmol^−1] | Inflammation (% Inhib.) (NF-κB) | [0]208 mean residue ellipticity at λ=208 nm ([1]; 40% TFE/water) [deg cm^2 dmol^−1] | [0]222/[0]208 ratio of ellipticities ([1]; 40% TFE/water) | [0]222 mean residue ellipticity at λ=222 nm ([1]; 40% TFE/water) [deg cm^2 dmol^−1] | [0]208 mean residue ellipticity at λ=208 nm ([1]; water) [deg cm^2 dmol^−1] | [0]222/[0]208 ratio of ellipticities ([1]; water) | [0]222 mean residue ellipticity at λ=222 nm ([1]; water) [deg cm^2 dmol^−1] |
| --- | --- | --- | --- | --- | --- | --- | --- | --- | --- | --- | --- | --- | --- | --- | --- | --- |
| Ac-VSKLRSQLVKRKQN-NH2 [Compound 132] | 0.13 | 0.13 | 0.72 | 0.13 | nominal alpha helical character in water | -1.59E+04 | -4,85E+03 deg cm^2 dmol^−1 | -1.14E+04 | -1.10E+03 | 0 | – | – | – | – | – | – |
| Ac-(cyclo-6,10)-NLKQK[EKHVK]KLKDE-NH2 (Ac-NLKQKEKHVKKLKDE-NH2; lactam 6-10; SMILES CC(=O)N[C@@H](CC(N)=O)C(=O)N[C@@H](CC(C)C)C(=O)N[C@@H](CCCCN)C(=O)N[C@@H](CCC(N)=O)C(=O)N[C@@H](CCCCN)C(=O)N[C@H]1CCC(=O)NCCCC[C@@H](C(=O)N[C@@H](CCCCN)C(=O)N[C@@H](CC(C)C)C(=O)N[C@@H](CCCCN)C(=O)N[C@@H](CC(=O)O)C(=O)N[C@@H](CCC(=O)O)C(N)=O)NC(=O)[C@H](C(C)C)NC(=O)[C@H](Cc2c[nH]cn2)NC(=O)[C@H](CCCCN)NC1=O) [Compound 159] | 0.44 | 0.44 | 0.85 | 0.44 | – | – | -5.95E+03 deg cm^2 dmol^−1 | -1.26E+04 | -2.61E+03 | 0 | – | – | – | – | – | – |
| Ac-(cyclo-11-15, cyclo-16-20)-KIKHVVKLKD[ENSQK][ESEVK]KLRSQLVKRIK-NH2 [Compound 267] | 0.48 | 0.48 | – | 0.48 | – | – | – | – | – | 0 | -3.02E04 | 0.77 | -2.34E04 | -1.29E+04 | 0.48 | -6.14E+03 |
| Ac-(cyclo-4,8)-VSK[ERSQK]VKRKQN-NH2 (Ac-VSKERSQKVKRKQN-NH2; lactam 4-8; SMILES CC(=O)N[C@H](C(=O)N[C@@H](CO)C(=O)N[C@@H](CCCCN)C(=O)N[C@H]1CCC(=O)NCCCC[C@@H](C(=O)N[C@H](C(=O)N[C@@H](CCCCN)C(=O)N[C@@H](CCCNC(=N)N)C(=O)N[C@@H](CCCCN)C(=O)N[C@@H](CCC(N)=O)C(=O)N[C@@H](CC(N)=O)C(N)=O)C(C)C)NC(=O)[C@H](CCC(N)=O)NC(=O)[C@H](CO)NC(=O)[C@H](CCCNC(=N)N)NC1=O)C(C)C) [Compound 150] | 0.53 | 0.53 | 0.81 | 0.53 | decreased helicity | -1.21E+04 | -6.30E+03 deg cm^2 dmol^−1 | -9.75E+03 | -3.35E+03 | 0 | – | – | – | – | – | – |
